# Results reported in IntAct's records for PubMed 31515488.
# B1: Transcription factor 12 (Homo sapiens), Q99081-3 (parent)
# chain: MNPQQQRMAAIGTDKELSDLLDFSAMFSPPVNSGKTRPTTLGSSQFSGSGIDERGGTTSWGTSGQPSPSYDSSRGFTDSPHYSDHLNDSRLGAHEGLSPTPFMNSNLMGKTSERGSFSLYSRDTGLPGCQSSLLRQDLGLGSPAQLSSSGKPGTAYYSFSATSSRRRPLHDSAALDPLQAKKVRKVPPGLPSSVYAPSPNSDDFNRESPSYPSPKPPTSMFASTFFMQDGTHNSSDLWSSSNGMSQPGFGGILGTSTSHMSQSSSYGNLHSHDRLSYPPHSVSPTDINTSLPPMSSFHRGSTSSSPYVAASHTPPINGSDSILGTRGNAAGSSQTGDALGKALASIYSPDHTSSSFPSNPSTPVGSPSPLTGTSQWPRPGGQAPSSPSYENSLHSLKNRVEQQLHEHLQDAMSFLKDVCEQSRMEDRLDRLDDAIHVLRNHAVGPSTSLPAGHSDIHSLLGPSHNAPIGSLNSNYGGSSLVASSRSASMVGTHREDSVSLNGNHSVLSSTVTTSSTDLNHKTQENYRGGLQSQSGTVVTTEIKTENKEKDENLHEPPSSDDMKSDDESSQKDIKVSSRGRTSSTNEDEDLNPEQKIEREKERRMANNARERLRVRDINEAFKELGRMCQLHLKSEKPQTKLLILHQAVAVILSLEQQVRERNLNPKAACLKRREEEKVSAVSAEPPTTLPGTHPGLSETTNPMGHM
# partner: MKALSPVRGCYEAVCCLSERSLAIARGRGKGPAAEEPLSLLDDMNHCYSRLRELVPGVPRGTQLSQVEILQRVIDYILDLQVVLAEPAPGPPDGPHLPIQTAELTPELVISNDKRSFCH
# B2: Zinc finger protein 511 (Homo sapiens), Q8NB15 (parent)
# chain: MQLPPALCARLAAGPGAAEPLPVERDPAAGAAPFRFVARPVRFPREHQFFEDGDVQRHLYLQDVIMQVADVPEKPRVPAFACQVAGCCQVFDALDDYEHHYHTLHGNVCSFCKRAFPSGHLLDAHILEWHDSLFQILSERQDMYQCLVEGCTEKFKTSRDRKDHMVRMHLYPADFRFDKPKKSRSPASAEAPGDSGERSEGEAMEICSEPVAASPAPAGERRIYRHRIPSTICFGQGAARGFKSNKKKTKQC
# partner: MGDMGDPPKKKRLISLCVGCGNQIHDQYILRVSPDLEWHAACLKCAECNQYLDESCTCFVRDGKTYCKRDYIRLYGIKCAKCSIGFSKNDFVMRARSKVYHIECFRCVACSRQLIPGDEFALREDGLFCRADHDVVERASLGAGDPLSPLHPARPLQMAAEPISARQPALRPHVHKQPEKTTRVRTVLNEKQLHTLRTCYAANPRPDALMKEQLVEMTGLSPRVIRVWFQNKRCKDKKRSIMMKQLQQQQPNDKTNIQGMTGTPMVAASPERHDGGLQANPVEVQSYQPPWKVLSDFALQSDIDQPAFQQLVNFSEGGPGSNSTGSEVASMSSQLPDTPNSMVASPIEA
# B3: Cysteine-rich C-terminal protein 1 (Homo sapiens), Q9UGL9 (parent)
# chain: MSSQQSAVSAKGFSKGSSQGPAPCPAPAPTPAPASSSSCCGSGRGCCGDSGCCGSSSTSCCCFPRRRRRQRSSGCCCCGGGSQRSQRSNNRSSGCCSGC
# B4: Protein dispatched homolog 1 (Homo sapiens), Q96F81 (parent)
# chain: MAMSNGNNDFVVLSNSSIATSAANPSPLTPCDGDHAAQQLTPKEATRTKVSPNGCLQLNGTVKSSFLPLDNQRMPQMLPQCCHPCPYHHPLTSHSSHQECHPEAGPAAPSALASCCMQPHSEYSASLCPNHSPVYQTTCCLQPSPSFCLHHPWPDHFQHQPVQQHIANIRPSRPFKLPKSYAALIADWPVVVLGMCTMFIVVCALVGVLVPELPDFSDPLLGFEPRGTAIGQRLVTWNNMVKNTGYKATLANYPFKYADEQAKSHRDDRWSDDHYEREKREVDWNFHKDSFFCDVPSDRYSRVVFTSSGGETLWNLPAIKSMCNVDNSRIRSHPQFGDLCQRTTAASCCPSWTLGNYIAILNNRSSCQKIVERDVSHTLKLLRTCAKHYQNGTLGPDCWDMAARRKDQLKCTNVPRKCTKYNAVYQILHYLVDKDFMTPKTADYATPALKYSMLFSPTEKGESMMNIYLDNFENWNSSDGVTTITGIEFGIKHSLFQDYLLMDTVYPAIAIVIVLLVMCVYTKSMFITLMTMFAIISSLIVSYFLYRVVFHFEFFPFMNLTALIILVGIGADDAFVLCDVWNYTKFDKPHAETSETVSITLQHAALSMFVTSFTTAAAFYANYVSNITAIRCFGVYAGTAILVNYVLMVTWLPAVVVLHERYLLNIFTCFKKPQQQIYDNKSCWTVACQKCHKVLFAISEASRIFFEKVLPCIVIKFRYLWLFWFLALTVGGAYIVCINPKMKLPSLELSEFQVFRSSHPFERYDAEYKKLFMFERVHHGEELHMPITVIWGVSPEDNGNPLNPKSKGKLTLDSSFNIASPASQAWILHFCQKLRNQTFFYQTDEQDFTSCFIETFKQWMENQDCDEPALYPCCSHWSFPYKQEIFELCIKRAIMELERSTGYHLDSKTPGPRFDINDTIRAVVLEFQSTYLFTLAYEKMHQFYKEVDSWISSELSSAPEGLSNGWFVSNLEFYDLQDSLSDGTLIAMGLSVAVAFSVMLLTTWNIIISLYAIISIAGTIFVTVGSLVLLGWELNVLESVTISVAVGLSVDFAVHYGVAYRLAPDPDREGKVIFSLSRVGSAMAMAALTTFVAGAMMMPSTVLAYTQLGTFMMLIMCISWAFATFFFQCMCRCLGPQGTCGQIPLPKKLQCSAFSHALSTSPSDKGQSKTHTINAYHLDPRGPKSELEHEFYELEPLASHSCTAPEKTTYEETHICSEFFNSQAKNLGMPVHAAYNSELSKSTESDAGSALLQPPLEQHTVCHFFSLNQRCSCPDAYKHLNYGPHSCQQMGDCLCHQCSPTTSSFVQIQNGVAPLKATHQAVEGFVHPITHIHHCPCLQGRVKPAGMQNSLPRNFFLHPVQHIQAQEKIGKTNVHSLQRSIEEHLPKMAEPSSFVCRSTGSLLKTCCDPENKQRELCKNRDVSNLESSGGTENKAGGKVELSLSQTDASVNSEHFNQNEPKVLFNHLMGEAGCRSCPNNSQSCGRIVRVKCNSVDCQMPNMEANVPAVLTHSELSGESLLIKTL
# partner: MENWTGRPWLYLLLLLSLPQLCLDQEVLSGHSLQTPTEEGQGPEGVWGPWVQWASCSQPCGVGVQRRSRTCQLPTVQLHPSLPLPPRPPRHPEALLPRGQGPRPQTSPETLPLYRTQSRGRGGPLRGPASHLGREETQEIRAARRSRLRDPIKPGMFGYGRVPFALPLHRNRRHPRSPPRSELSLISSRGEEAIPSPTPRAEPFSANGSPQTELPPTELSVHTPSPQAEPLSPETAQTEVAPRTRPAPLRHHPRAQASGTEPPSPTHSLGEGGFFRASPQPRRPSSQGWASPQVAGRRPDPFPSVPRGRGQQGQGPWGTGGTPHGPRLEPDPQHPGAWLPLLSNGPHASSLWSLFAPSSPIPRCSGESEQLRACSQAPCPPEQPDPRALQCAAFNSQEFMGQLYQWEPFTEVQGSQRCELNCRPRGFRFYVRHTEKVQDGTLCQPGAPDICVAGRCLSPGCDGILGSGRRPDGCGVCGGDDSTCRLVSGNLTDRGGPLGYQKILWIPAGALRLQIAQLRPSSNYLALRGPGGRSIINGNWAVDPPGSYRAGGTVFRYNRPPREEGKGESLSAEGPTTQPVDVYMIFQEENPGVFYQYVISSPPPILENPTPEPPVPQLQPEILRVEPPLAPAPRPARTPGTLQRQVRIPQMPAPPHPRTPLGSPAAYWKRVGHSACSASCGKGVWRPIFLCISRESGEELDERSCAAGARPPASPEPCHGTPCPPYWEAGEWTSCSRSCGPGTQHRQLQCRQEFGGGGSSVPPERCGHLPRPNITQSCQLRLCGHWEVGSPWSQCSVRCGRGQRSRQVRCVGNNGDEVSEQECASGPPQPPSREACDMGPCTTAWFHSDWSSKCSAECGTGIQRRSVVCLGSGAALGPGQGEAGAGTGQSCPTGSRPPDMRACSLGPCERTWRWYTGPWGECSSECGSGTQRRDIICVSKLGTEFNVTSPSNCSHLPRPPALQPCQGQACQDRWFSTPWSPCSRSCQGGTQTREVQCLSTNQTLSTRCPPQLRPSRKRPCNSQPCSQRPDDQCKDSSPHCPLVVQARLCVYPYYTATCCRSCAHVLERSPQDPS
# B5: Consortin (Homo sapiens), Q6PJW8 (parent)
# chain: MDDSDTPTYYLQIEPQDGCHPGDSVERSVTCLPSASDENENQLDGDGHEHLTSSDSAMGKPQVSEQDSLNNNESCTLSCEVAAGENLQNTLCEASRDEQAFLGKDKKIPGKRSPRSKKGTAKKIPPGLFSGDIAPLMQEKVLSAVTYAVDDEEAAEVNANEQPEAPKLVLQSLFSLIRGEVEQLDSRALPLCLHQIAESYFQEEDYEKAMKFIQLERLYHEQLLANLSAIQEQWETKWKTVQPHTVTALRNSEKGFNGEDFERLTKICATHQDPLLSKHKIAAVEKSQERKCSTQLLVSEDPKEGGATTKESESKTCLGTESSKESQHTVEPLGSSPCCHQMDVQTDSPSLSVTAGKDHMEELLCSAEATLALHTQSSETAGSPSGPDSSEDACEDDSRLQLAQTEACQDVARIEGIAEDPKVFLSSKSKTEPLISPGCDRIPPALISEGKYSQAQRKELRLPLRDASEALPTDQLENNELNELQQPDLTDSDGKSPQAQADSDGSENVLCGNNQISDLGILLPEVCMAPEEKGDKDDQLNKETEDYLNSLLEGCLKDTEDSLSYEDNQDDDSDLLQDLSPEEASYSLQENLPSDESCLSLDDLAKRIEIAEVVPTEGLVSILKKRNDTVGDHPAQMQHKPSKRRVRFQEIDDSLDQDEVGGGSCILLVLLCIATVFLSVGGTALYCTFGDMESPVCTDFADNMDFYYTKLLQGVAELKHWIYLS
# Variants of: B1
# Settings: with id3_human ID3, Q02535
row,Variant,effect of a mutation on the interaction
1,N606H,with no effect
2,Y120C,with no effect
3,A155T,with no effect
4,S446F,with no effect
5,R74G,with no effect

# Variants of: B2
# Settings: with isl1_human ISL1, P61371
row,Variant,effect of a mutation on the interaction
1,S195N,with no effect
2,D123N,with no effect

# Variants of: B3
# Settings: with nt2na_human NOTCH2NLA
row,Variant,effect of a mutation on the interaction
1,G20S,with no effect

# Variants of: B4
# Settings: with atl4_human ADAMTSL4, Q6UY14
row,Variant,effect of a mutation on the interaction
1,E103K,with no effect
2,E103D,with no effect

# Variants of: B5
# Settings: with rop1a_human ROPN1, Q9HAT0
# rop1a_human ROPN1, Q9HAT0, sequence (Q9HAT0 whole entry): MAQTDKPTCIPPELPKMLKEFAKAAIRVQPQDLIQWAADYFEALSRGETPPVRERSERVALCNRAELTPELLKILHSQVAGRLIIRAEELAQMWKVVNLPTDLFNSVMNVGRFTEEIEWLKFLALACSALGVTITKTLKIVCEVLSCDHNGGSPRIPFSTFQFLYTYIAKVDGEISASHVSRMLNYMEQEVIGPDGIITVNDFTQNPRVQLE
row,Variant,effect of a mutation on the interaction
1,Q183R,with no effect
2,R399C,with no effect
